Publication PMC5520923

Target: Atg16 (human (endogenous in HCT116 and H1299)) (UniProt Q676U5)
Assay: co-IP; lysates of HCT116/Shnon and HCT116/ShASPP1 cells (also H1299 with ASPP1 knock-down, Supplementary Figure 3B) immunoprecipitated with anti-Atg16 antibody; co-precipitated proteins detected by western blot

Chain of UniProt Q676U5 (Q676U5 whole entry): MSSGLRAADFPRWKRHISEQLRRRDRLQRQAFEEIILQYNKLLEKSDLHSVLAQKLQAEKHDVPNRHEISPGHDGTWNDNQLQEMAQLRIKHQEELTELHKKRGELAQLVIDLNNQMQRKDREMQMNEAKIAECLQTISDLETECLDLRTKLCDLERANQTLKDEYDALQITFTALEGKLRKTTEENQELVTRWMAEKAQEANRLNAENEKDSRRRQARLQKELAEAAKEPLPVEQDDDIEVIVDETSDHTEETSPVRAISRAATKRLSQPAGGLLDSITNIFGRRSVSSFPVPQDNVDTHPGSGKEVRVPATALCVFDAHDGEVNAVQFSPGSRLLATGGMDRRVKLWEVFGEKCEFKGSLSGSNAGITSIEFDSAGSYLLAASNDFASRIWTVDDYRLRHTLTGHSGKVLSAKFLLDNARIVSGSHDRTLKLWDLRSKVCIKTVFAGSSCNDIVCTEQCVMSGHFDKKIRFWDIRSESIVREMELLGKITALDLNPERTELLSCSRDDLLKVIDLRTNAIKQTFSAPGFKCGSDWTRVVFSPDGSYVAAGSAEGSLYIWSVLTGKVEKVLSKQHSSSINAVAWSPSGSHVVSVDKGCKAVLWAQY

fold increase of Atg5–Atg12 in the Atg16 immunoprecipitate, ASPP1 knock-down against control cells (H1299): 2 fold
fold increase of Atg5–Atg12 in the Atg16 immunoprecipitate, ASPP1 knock-down against control cells (HCT116): 2 fold
Substance: Atg5–Atg12 conjugate (from UniProt Q9H1Y0 1-275; O94817 1-140) (complex)
